# Measurements from IntAct's records for PubMed 22817896.
# B1: Receptor-interacting serine/threonine-protein kinase 1 (Homo sapiens), Q13546 (parent)
# chain: MQPDMSLNVIKMKSSDFLESAELDSGGFGKVSLCFHRTQGLMIMKTVYKGPNCIEHNEALLEEAKMMNRLRHSRVVKLLGVIIEEGKYSLVMEYMEKGNLMHVLKAEMSTPLSVKGRIILEIIEGMCYLHGKGVIHKDLKPENILVDNDFHIKIADLGLASFKMWSKLNNEEHNELREVDGTAKKNGGTLYYMAPEHLNDVNAKPTEKSDVYSFAVVLWAIFANKEPYENAICEQQLIMCIKSGNRPDVDDITEYCPREIISLMKLCWEANPEARPTFPGIEEKFRPFYLSQLEESVEEDVKSLKKEYSNENAVVKRMQSLQLDCVAVPSSRSNSATEQPGSLHSSQGLGMGPVEESWFAPSLEHPQEENEPSLQSKLQDEANYHLYGSRMDRQTKQQPRQNVAYNREEERRRRVSHDPFAQQRPYENFQNTEGKGTAYSSAASHGNAVHQPSGLTSQPQVLYQNNGLYSSHGFGTRPLDPGTAGPRVWYRPIPSHMPSLHNIPVPETNYLGNTPTMPFSSLPPTDESIKYTIYNSTGIQIGAYNYMEIGGTSSSLLDSTNTNFKEEPAAKYQAIFDNTTSLTDKHLDPIRENLGKHWKNCARKLGFTQSQIDEIDHDYERDGLKEKVYQMLQKWVMREGIKGATVGKLAQALHQCSRIDLLSSLIYVSQN
# B2: Receptor-interacting serine/threonine-protein kinase 3 (Homo sapiens), Q9Y572 (parent)
# chain: MSCVKLWPSGAPAPLVSIEELENQELVGKGGFGTVFRAQHRKWGYDVAVKIVNSKAISREVKAMASLDNEFVLRLEGVIEKVNWDQDPKPALVTKFMENGSLSGLLQSQCPRPWPLLCRLLKEVVLGMFYLHDQNPVLLHRDLKPSNVLLDPELHVKLADFGLSTFQGGSQSGTGSGEPGGTLGYLAPELFVNVNRKASTASDVYSFGILMWAVLAGREVELPTEPSLVYEAVCNRQNRPSLAELPQAGPETPGLEGLKELMQLCWSSEPKDRPSFQECLPKTDEVFQMVENNMNAAVSTVKDFLSQLRSSNRRFSIPESGQGGTEMDGFRRTIENQHSRNDVMVSEWLNKLNLEEPPSSVPKKCPSLTKRSRAQEEQVPQAWTAGTSSDSMAQPPQTPETSTFRNQMPSPTSTGTPSPGPRGNQGAERQGMNWSCRTPEPNPVTGRPLVNIYNCSGVQVGDNNYLTMQQTTALPTWGLAPSGKGRGLQHPPPVGSQEGPKDPEAWSRPQGWYNHSGK
# Variants of: B1
# Conditions: with ripk3_human RIPK3, Q9Y572
row,Variant,effect of a mutation on the interaction
1,I539D,decreasing interaction strength
2,Q540D,decreasing interaction strength
3,A543D,decreasing interaction strength
4,I541D,decreasing interaction strength
5,G542D,decreasing interaction strength
6,N545D,decreasing interaction strength
7,Y544D,decreasing interaction strength

# Variants of: B2
# Conditions: with ripk1_human RIPK1, Q13546
row,Variant,effect of a mutation on the interaction
1,D462K,decreasing interaction strength
2,V460D,decreasing interaction strength
3,S456D,decreasing interaction strength
4,G461D,decreasing interaction strength
5,Q459D,decreasing interaction strength
6,G457D,decreasing interaction strength
7,V458D,decreasing interaction strength
8,V458E;V460E,decreasing interaction strength

# Variants of: B2
# Conditions: with ripk1_human RIPK1, Q13546
# Remark: another data set of the same source
row,Variant,effect of a mutation on the interaction
1,V460P,decreasing interaction strength
2,G461P,decreasing interaction strength
3,Q459P,decreasing interaction strength
4,V458P,decreasing interaction strength
